Laboratory results as given in patent US20030027338A1 (BROOKHAVEN SCIENCE ASSOCIATES, published 2003).
Changes are numbered by the printed parent chain.

T1: his-tagged Ad12 knob (wild type) (adenovirus serotype 12, UniProt P36711 401-587)
T1 construct: range 401-587; Cloned between the NdeI and BamHI sites of pET15b; tag left on; also called Purified, his-tagged Ad12 knob; wild-type his-tagged knob protein; not shown: pET15b vector-encoded N-terminal hexahistidine tag
T1 sequence: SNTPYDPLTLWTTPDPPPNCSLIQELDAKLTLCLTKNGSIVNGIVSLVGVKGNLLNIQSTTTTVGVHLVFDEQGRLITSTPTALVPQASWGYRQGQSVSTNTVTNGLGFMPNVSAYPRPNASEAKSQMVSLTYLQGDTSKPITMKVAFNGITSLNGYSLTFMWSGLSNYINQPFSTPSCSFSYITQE

T2: Ad12 knob mutant P417E/P418A (his-tagged) (adenovirus serotype 12, UniProt P36711 401-587)
T2 construct: range 401-587; AB loop; also called double substitution P417E/P418A; not shown: pET15b vector-encoded N-terminal hexahistidine tag
T2 sequence: T1 sequence with P17E, P18A

B1: his-tagged D1/D2 (refolded entire extracellular region of human CAR, IgV+IgC2 domains) (receptor)
chain: MGITTPEEMIEKAKGETAYLPCKFTLSPEDQGPLDIEWLISPADNQKVDQVIILYSGDKIYDDYYPDLKGRVHFTSNDLKSGDASINVTNLQLSDIGTYQCKVKKAPGVANKKIHLVVLVKPSGARCYVDGSEEIGSDFKIKCEPKEGSLPLQYEWQKLSDSQKMPTSWLAEMTSSVISVKNASSEYSGTYSCTVRNRVGSDQCLLRLNVVPPSNKAG
notes: range 20-237; also called CAR D1/D2; CARD1/D2; not shown: pET15b vector-encoded amino-terminal hexahistidine tag
B2: Ad12 knob (recombinant adenovirus type 12 fiber knob domain, his-tag removed by thrombin) (other)
chain: T1 sequence
notes: range 401-587; Expressed from pET15b in E. coli; The hexahistidine tag was cleaved with thrombin; Trimer by SDS-PAGE, STEM (60.6 kDa) and gel filtration; also called Ad12 fiber knob
B3: sD1 (soluble D1 of human CAR with 22 amino acid carboxy-terminal extension) (receptor)
chain: MGITTPEEMIEKAKGETAYLPCKFTLSPEDQGPLDIEWLISPADNQKVDQVIILYSGDKIYDDYYPDLKGRVHFTSNDLKSGDASINVTNLQLSDIGTYQCKVKKAPGVANKKIHLVVLVKPSGALEDPAANKARKEAELAAATAEQ
notes: range 20-144; No hexahistidine tag; Used as a partially purified preparation; also called pET15b-sD1 product
B4: his-tagged D1 (refolded amino-terminal IgV domain of human CAR) (receptor)
chain: MGITTPEEMIEKAKGETAYLPCKFTLSPEDQGPLDIEWLISPADNQKVDQVIILYSGDKIYDDYYPDLKGRVHFTSNDLKSGDASINVTNLQLSDIGTYQCKVKKAPGVANKKIHLVVLVKPSGA
notes: range 20-144; also called CAR D1; CARD1; not shown: pET15b vector-encoded amino-terminal hexahistidine tag
B5: biotinylated CARD1 protein (receptor)
chain: B4 chain with M1L, G2S
modifications: biotinylated with sulfo-NHS-LC biotin (sites not given)
notes: domain: D1

Columns and labels:
[1] = target: T3, purified Ad2 hexon protein (adenovirus type 2, UniProt P03277 2-968); test: Ni-NTA pull-down with his-tagged D1/D2, SDS-PAGE of bead eluate
T3 construct: Included as a specificity control in the pull-down
T3 sequence (P03277 2-968 limits assumed): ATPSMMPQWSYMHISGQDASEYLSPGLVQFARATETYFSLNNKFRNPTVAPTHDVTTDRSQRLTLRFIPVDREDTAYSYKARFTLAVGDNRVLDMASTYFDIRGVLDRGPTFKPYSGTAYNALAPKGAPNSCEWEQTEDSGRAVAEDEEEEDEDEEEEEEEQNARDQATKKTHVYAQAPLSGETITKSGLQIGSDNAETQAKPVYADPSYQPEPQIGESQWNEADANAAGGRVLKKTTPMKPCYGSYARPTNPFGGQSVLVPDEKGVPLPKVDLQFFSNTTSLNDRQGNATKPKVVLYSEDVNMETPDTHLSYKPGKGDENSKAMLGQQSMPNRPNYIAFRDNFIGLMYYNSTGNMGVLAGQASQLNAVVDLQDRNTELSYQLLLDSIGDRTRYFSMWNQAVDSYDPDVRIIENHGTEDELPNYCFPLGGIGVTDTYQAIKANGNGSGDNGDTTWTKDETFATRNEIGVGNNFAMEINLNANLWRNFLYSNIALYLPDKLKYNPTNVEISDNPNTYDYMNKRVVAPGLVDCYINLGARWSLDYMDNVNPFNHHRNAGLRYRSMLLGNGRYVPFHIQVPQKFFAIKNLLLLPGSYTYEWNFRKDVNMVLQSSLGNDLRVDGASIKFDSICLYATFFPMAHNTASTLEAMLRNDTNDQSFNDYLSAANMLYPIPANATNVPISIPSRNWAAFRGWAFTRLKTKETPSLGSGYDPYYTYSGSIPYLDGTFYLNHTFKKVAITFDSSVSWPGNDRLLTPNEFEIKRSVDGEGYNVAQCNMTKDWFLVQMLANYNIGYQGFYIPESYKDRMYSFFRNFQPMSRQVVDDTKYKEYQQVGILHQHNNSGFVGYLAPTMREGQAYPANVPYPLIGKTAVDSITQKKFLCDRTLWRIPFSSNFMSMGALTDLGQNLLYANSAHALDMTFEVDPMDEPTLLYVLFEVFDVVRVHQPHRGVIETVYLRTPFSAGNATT

[2] = target: B1; test: as above
[3] = target: T1, his-tagged Ad12 knob (wild type); test: Ni-NTA column capture of his-tagged knob mixed with sD1, EDTA elution, SDS-PAGE
[4] = target: T3, purified Ad2 hexon protein; test: Ni-NTA pull-down with his-tagged D1, SDS-PAGE of bead eluate
[5] = target: T2, Ad12 knob mutant P417E/P418A …; test: dot blot: his-tagged knob on nitrocellulose (5 µg per dot) probed with biotinylated CARD1, chemiluminescence; text: abrogated CARD1 binding

B1
binding result [1]: no binding

B2
binding result [2]: binds

B3
binding result [3]: binds

B4
binding result [4]: no binding

B5
binding result [5]: no binding (tested: 5 µg/ml biotinylated CARD1)
